In US20220168346A1 (published 2022):

T1: gp100 peptide on HLA-C*07:01 (human)
T1 peptide: RYGSFSVTL


What was measured:
[1] = target: C*07:01/gp100479-487 multimer (human; mouse) (UniProt P01901); assay: pHLA multimer staining of TILs after one peptide-specific stimulation with C*07:01-artificial APCs (day 14), flow cytometry
[2] = target: C*07:01/gp100479-487 multimer (human; mouse) (UniProt P01901); assay: pHLA multimer staining of TILs before stimulation (day 0), flow cytometry
[3] = target: T1, gp100 peptide on HLA-C*07:01; assay: multimer staining
Description: T cells (1×10⁵) were incubated for 30 minutes at 37° C. in the presence of 50 nM dasatinib (LC laboratories). The cells were then washed and incubated with 5-10 μg/ml of multimer for 30 minutes at room temperature, and R-phycoerythrin-conjugated AffiniPure Fab fragment goat anti-mouse IgG1 (Jackson ImmunoResearch Laboratories) was added for 15 minutes at 4° C. Next, the cells were washed three times and costained with an anti-CD8 mAb for 15 minutes at 4° C. Dead cells were finally discriminated using the LIVE/DEAD Fixable Dead Cell Stain kit.

Row | Molecule | percentage of multimer+ cells in CD8+ T cells [1] | percentage of multimer+ cells in CD8+ T cells [2] | binding result [3]
1 | C*07:01+ melanoma TILs | 1.2% | 0.14% | –
2 | C*07:01/gp100479-487 TCR (TCR, V domains shown) Valpha: DQQVKQNSPSLSVQEGRISILNCDYTNSMFDYFLWYKKYPAEGPTFLISISSIKDKNEDGRFTVFLNKSAKHLSLHIVPSQPGDSAVYFCAANSGNTPLVFGKGTRLSVIA Vbeta: EPEVTQTPSHQVTQMGQEVILRCVPISNHLYFYWYRQILGQKVEFLVSFYNNEISEKSEIFDDQFSVERPDGSNFTLKIRSTKLEDSAMYFCASSLMGGGNTIYFGEGSWLTVV | – | – | recognises
